As usually defined, the Kd is the concentration at which binding is half-saturated. A word on the koff: it is the rate constant with which the complex falls apart. As usually defined, the kon is a measure of how fast the partners come together. By EC50 is commonly meant the concentration that produces a half-maximal response.

Consider 20 molecules from patent US20160031986A1.

First the molecules themselves.
B1: 32C7 rat monoclonal antibody (antibody, V domains shown)
VH: EVQLVESGGGLVQPGRSLKLSCLASGFPFSSVWMTWIRQAPGKGLEWIATITNSGASTYYSASVKGRFTISRDNVKSTLYLQMTSLGSEDTATYYCTRVGTSFDYWGQGVMVTVSS
VL: DIQMTQSPASLSASLGETVTIECRASDDIYNGLAWFQQKPGKSPQLLIYDANTLHTGVPSRFSGSGSGTQFSLKINSLQSEDVASYFCQQFYDYPPYTFGAGTKLELKR
B2: 14G1 rat monoclonal antibody (antibody, V domains shown)
VH: EVQLQQSGAELAKPGSSVKISCKASGYTFTNYDISWIKQTNGQGLEYLGYINTGSGGIYSNEKFKGKATLTVDKSSNTAFMQLSSLTPEDTAVYYCVREGNNFDHWGQGVKVTVSS
VL: DTVMTQSPASMSTSVGERVTVNCKASQSVGTIVAWFQQKPGQSPKRLIYLATYRHTGVPDRFIGSGFGRDFTLTISNVEAEDLAVYYCLQYGSRPFTFGAGTKLEIKR
B3: 38H12 rat monoclonal antibody (antibody, V domains shown)
VH: EVQLVESGGGLVQPGRSLKLSCAASGFTFSNYGMYWIRQAPTKGLQWVAFISHGGGITYYRDSVKGRFTISRDNAKSTLYLQMDSLRSEDTATYHCAALNWELGIDYWGQGVMVTVSS
VL: DIQMTQSPASLSASLGETISIECRASEDIYSNLAWYQKKSGKSPQLLIYAANRLQDGVPSRFSGSGSGTQYSLKISGMQPEDEGDYFCLQGSKFPLTFGSGTKLEIKR
B4: 15D6 rat monoclonal antibody (antibody, V domains shown)
VH: EVQLQQSGPELAKPGSSVKISCKASGYTFTSSYISWIKQTTGQGLEYIGYINTGSGGTDYNEKFKDKATLTVDKSSRTVFMQLSSLTPGDSAVYYCAKSILLGSTYYLDYWGQGVMVTVSS
VL: DTVLTQSPALAVSLGQRVTISCKASRSLSSPMYSYIYWYQQKLGQQPRLLIYRASTLASGVPARFSGSGSGTDFTLNIDPVEADDIATYFCQQSWSDPFTFGSGTKLEIKR
B5: 14A11 rat monoclonal antibody (antibody, V domains shown)
VH: EVQLQQSGPELAKPGSSVKISCKASGYTFTNSYISWIKQTTGQGLEYVGYINTGSGGADYNEKFKGKATLTVDKSSRTAFMQLSSLTPGDSAVYYCAKSILLGSTCYFDYWGQGVLVTVSS
VL: NTVLTQSPALAVSLGQRVTISCKASRSVSSPMYSYIYWYQQKPGQQPKLLIYRASTLASGVPARFSGSGSGTDFTLNIDPVEADDIATYFCQQSWSDPFTFGSGTKLEIKR
B6: 37D10 rat monoclonal antibody (antibody, V domains shown)
VH: AVQLVESGGGLVQPKESLKISCAASGFTFSNAAMYWVRLAPGKGLEWVARIRTKPNNYATYYAESVKGRFTISRDDSKSMVYVQMDNLKTEDTAMYYCTAAPWRDSYAHVYWGQGVMVTVSS
VL: DIQMTQSPPVLSASVGDRVTLSCKASQNIHKNLDWYQQKHGDAPKLLIYYTDHLQTGVPSRFSGSGSATDYTLTISSLQPEDVATYYCYQYNGGPFTFGSGTKLEIKR
B7: 1A11 rat monoclonal antibody (antibody, V domains shown)
VH: EVQLVESGGGLVQPGRSMKLSCAASGFTFRNFPMAWVRQAPTRGLEWVATISSSDGTTYYRDSVKGRFTISRDNAKSTLYLQVNSLRSEDTATYYCSRGYYNSPFAYWGQGTLVTVSS
VL: DIQMTQSPASLSASLGETVTIECRASEDIYSNLAWYQQKPGNSPQLLIFDTNNLADGVPSRFSGSGSGTQSSLKINSLQSEDVASYFCQQYNNYPPTFGGGTKLELKR
B8: h1A11.2 (antibody, V domains shown)
VH: EVQLVESGGGLVQPGGSLRLSCAASGFTFSNFPMAWVRQAPGKGLEWVATISSSDGTTYYRDSVKGRFTISRDNAKNSLYLQMNSLRAEDTAVYYCARGYYNSPFAYWGQGTLVTVSS
VL: DIQMTQSPSSLSASVGDRVTITCRASEDIYSNLAWYQQKPGKSPKLLIFDTNNLADGVPSRFSGSGSGTDSTLTISSLQPEDFATYFCQQYNNYPPTFGQGTKLEIKR
B9: h1A11.14 (antibody, V domains shown)
VH: EVQLVESGGGLVQPGGSLRLSCAASGFTFSNFPMAWVRQAPGKGLEWVATISSSDGTTYYRDSVKGRFTISRDNSKSTLYLQMNSLRAEDTAVYYCSRGYYNSPFAYWGQGTLVTVSS
VL: DIQMTQSPSSLSASVGDRVTITCRASEDIYSNLAWYQQKPGKSPKLLIFDTNNLADGVPSRFSGSGSGTDSTLTISSLQPEDFATYFCQQYNNYPPTFGQGTKLEIKR
B10: h1A11.13 (antibody, V domains shown)
VH: EVQLVESGGGLVQPGGSLRLSCAASGFTFSNFPMAWVRQAPGKGLEWVATISSSDGTTYYRDSVKGRFTISRDNSKSTLYLQMNSLRAEDTAVYYCSRGYYNSPFAYWGQGTLVTVSS
VL: DIQMTQSPSSLSASVGDRVTITCRASEDIYSNLAWYQQKPGKAPKLLIYDTNNLADGVPSRFSGSGSGTDFTLTISSLQPEDFATYYCQQYNNYPPTFGQGTKLEIKR
B11: h1A11.9 (antibody, V domains shown)
VH: EVQLVESGGGLVQPGGSLRLSCAASGFTFSNFPMAWVRQAPGKGLEWVATISSSDGTTYYRDSVKGRFTISRDNAKNSLYLQMNSLRAEDTAVYYCSRGYYNSPFAYWGQGTLVTVSS
VL: DIQMTQSPSSLSASVGDRVTITCRASEDIYSNLAWYQQKPGKAPKLLIYDTNNLADGVPSRFSGSGSGTDFTLTISSLQPEDFATYYCQQYNNYPPTFGQGTKLEIKR
B12: h1A11.11 (antibody, V domains shown)
VH: EVQLVESGGGLVQPGGSLRLSCAASGFTFSNFPMAWVRQAPGKGLEWVATISSSDGTTYYRDSVKGRFTISRDNAKNSLYLQMNSLRAEDTAVYYCSRGYYNSPFAYWGQGTLVTVSS
VL: DIQMTQSPSSLSASVGDRVTITCRASEDIYSNLAWYQQKPGKAPKLLIFDTNNLADGVPSRFSGSGSGTDFTLTISSLQPEDFATYYCQQYNNYPPTFGQGTKLEIKR
B13: h1A11.7 (antibody, V domains shown)
VH: EVQLVESGGGLVQPGGSLRLSCAASGFTFSNFPMAWVRQAPGKGLEWVATISSSDGTTYYRDSVKGRFTISRDNAKSSLYLQMNSLRAEDTAVYYCSRGYYNSPFAYWGQGTLVTVSS
VL: DIQMTQSPSSLSASVGDRVTITCRASEDIYSNLAWYQQKPGKAPKLLIFDTNNLADGVPSRFSGSGSGTDFTLTISSLQPEDFATYYCQQYNNYPPTFGQGTKLEIKR
B14: h1A11.10 (antibody, V domains shown)
VH: EVQLVESGGGLVQPGGSLRLSCAASGFTFSNFPMAWVRQAPGKGLEWVATISSSDGTTYYRDSVKGRFTISRDNAKNSLYLQMNSLRAEDTAVYYCSRGYYNSPFAYWGQGTLVTVSS
VL: DIQMTQSPSSLSASVGDRVTITCRASEDIYSNLAWYQQKPGKSPKLLIFDTNNLADGVPSRFSGSGSGTDSTLTISSLQPEDFATYFCQQYNNYPPTFGQGTKLEIKR
B15: h1A11.3 (antibody, V domains shown)
VH: EVQLVESGGGLVQPGGSLRLSCAASGFTFSNFPMAWVRQAPGKGLEWVATISSSDGTTYYRDSVKGRFTISRDNAKNSLYLQMNSLRAEDTAVYYCARGYYNSPFAYWGQGTLVTVSS
VL: DIQMTQSPSSLSASVGDRVTITCRASEDIYSNLAWYQQKPGKAPKLLIFDTNNLADGVPSRFSGSGSGTDFTLTISSLQPEDFATYYCQQYNNYPPTFGQGTKLEIKR
B16: h1A11.8 (antibody, V domains shown)
VH: EVQLVESGGGLVQPGGSLRLSCAASGFTFSNFPMAWVRQAPGKGLEWVATISSSDGTTYYRDSVKGRFTISRDNAKSSLYLQMNSLRAEDTAVYYCSRGYYNSPFAYWGQGTLVTVSS
VL: EIVMTQSPATLSVSPGERATLSCRASEDIYSNLAWYQQKPGQSPRLLIFDTNNLADGVPARFSGSGSGTESTLTISSLQSEDFAVYFCQQYNNYPPTFGQGTKLEIKR
B17: h1A11.12 (antibody, V domains shown)
VH: EVQLVESGGGLVQPGGSLRLSCAASGFTFSNFPMAWVRQAPGKGLEWVATISSSDGTTYYRDSVKGRFTISRDNAKNSLYLQMNSLRAEDTAVYYCSRGYYNSPFAYWGQGTLVTVSS
VL: EIVMTQSPATLSVSPGERATLSCRASEDIYSNLAWYQQKPGQSPRLLIFDTNNLADGVPARFSGSGSGTESTLTISSLQSEDFAVYFCQQYNNYPPTFGQGTKLEIKR
B18: h1A11.5 (antibody, V domains shown)
VH: EVQLVESGGGLVQPGGSLRLSCAASGFTFSNFPMAWVRQAPGKGLEWVATISSSDGTTYYRDSVKGRFTISRDNAKSSLYLQMNSLRAEDTAVYYCSRGYYNSPFAYWGQGTLVTVSS
VL: DIQMTQSPSSLSASVGDRVTITCRASEDIYSNLAWYQQKPGKAPKLLIYDTNNLADGVPSRFSGSGSGTDFTLTISSLQPEDFATYYCQQYNNYPPTFGQGTKLEIKR
B19: h1A11.4 (antibody, V domains shown)
VH: EVQLVESGGGLVQPGGSLRLSCAASGFTFSNFPMAWVRQAPGKGLEWVATISSSDGTTYYRDSVKGRFTISRDNAKNSLYLQMNSLRAEDTAVYYCARGYYNSPFAYWGQGTLVTVSS
VL: EIVMTQSPATLSVSPGERATLSCRASEDIYSNLAWYQQKPGQSPRLLIFDTNNLADGVPARFSGSGSGTESTLTISSLQSEDFAVYFCQQYNNYPPTFGQGTKLEIKR
B20: h1A11.6 (antibody, V domains shown)
VH: EVQLVESGGGLVQPGGSLRLSCAASGFTFSNFPMAWVRQAPGKGLEWVATISSSDGTTYYRDSVKGRFTISRDNAKSSLYLQMNSLRAEDTAVYYCSRGYYNSPFAYWGQGTLVTVSS
VL: DIQMTQSPSSLSASVGDRVTITCRASEDIYSNLAWYQQKPGKSPKLLIFDTNNLADGVPSRFSGSGSGTDSTLTISSLQPEDFATYFCQQYNNYPPTFGQGTKLEIKR

One experiment has as its target cynomolgus monkey DLL4 extracellular domain (cynomolgus monkey). Kind of experiment: Biacore SPR. In general terms: In SPR one partner is held on a chip, and binding of the other changes the refractive index at the surface.
B1 showed a Kd of 0.03 nM, a koff of 6.3e-06 s⁻¹ and a kon of 220000 M⁻¹ s⁻¹.
Regarding B2, the Kd was 10.5 nM, the koff was determined as 0.00041 s⁻¹ and the kon was determined as 39000 M⁻¹ s⁻¹.
Take B3: the Kd turned out to be 0.4 nM, the koff is 9.8e-05 s⁻¹ and the kon stood at 260000 M⁻¹ s⁻¹.
B4 gave a Kd of 14.9 nM, a koff of 0.00083 s⁻¹ and a kon of 56000 M⁻¹ s⁻¹.
For B5 the same measures were 11.6 nM, 0.0012 s⁻¹ and 110000 M⁻¹ s⁻¹.
Regarding B6, the Kd is less than 617 nM and the kon came out at 40000 M⁻¹ s⁻¹.
As for B7, the Kd came to 8.1 nM, the koff stood at 0.00093 s⁻¹ and the kon was 110000 M⁻¹ s⁻¹.

Another experiment shares this target. Put plainly: binding ELISA.
Molecule B8 had an EC50 of 0.13 nM.
On to B9, for which the EC50 is 0.14 nM.
B10 displayed a 50% effective concentration (EC50) of 0.16 nM.
For B11, the EC50 turned out to be 0.15 nM.
Still for that read-out and setting: next, B12: 0.15 nM; B13: 0.14 nM; B14: 0.15 nM.
B15 gave an EC50 of 0.16 nM.
For B16, the EC50 was 0.17 nM.
In the case of B17, the EC50 came to 0.16 nM.
For B18, the EC50 stood at 0.16 nM.
As for B19, the EC50 is 0.17 nM.
B20 gave an EC50 of 0.13 nM.
